The source of these data is article PMC7802950, “Characteristics and expression patterns of six α-galactosidases in cucumber (Cucumis sativus L.)” (PLoS ONE, 2021).

Conditions in all cases: pH and temperature of Km assay not stated
For data set [1], the system named is T1, OC[C@H]1O[C@H](OC[C@H]2O[C@H](OC[C@H]3O[C@H](O[C@]4(CO)O[C@H](CO)[C@@H](O)[C@@H]4O)[C@H](O)[C@@H](O)[C@@H]3O)[C@H](O)[C@@H](O)[C@H]2O)[C@H](O)[C@@H](O)[C@H]1O.
T1 construct: coding region in pAcHLT, baculovirus/Sf9 insect cells; 6xHis tag removed by thrombin
The data set is described as follows: Lineweaver-Burk plot, hydrolysis. In kind it is biochemical, Cucumis sativus.

The subject of data set [2] is T2, OC[C@H]1O[C@H](OC[C@H]2O[C@H](O[C@]3(CO)O[C@H](CO)[C@@H](O)[C@@H]3O)[C@H](O)[C@@H](O)[C@@H]2O)[C@H](O)[C@@H](O)[C@H]1O.
T2 construct: coding region in pAcHLT, baculovirus/Sf9 insect cells; 6xHis tag removed by thrombin
As to the kind of experiment: Lineweaver-Burk plot, hydrolysis. In kind it is biochemical, Cucumis sativus.

Data set [3] relates to O=[N+]([O-])c1ccc(O[C@H]2O[C@H](CO)[C@H](O)[C@H](O)[C@H]2O)cc1. The data set is described as follows: purified protein.

CsGAL3 (Cucumis sativus), sequence (chain, as listed by the source): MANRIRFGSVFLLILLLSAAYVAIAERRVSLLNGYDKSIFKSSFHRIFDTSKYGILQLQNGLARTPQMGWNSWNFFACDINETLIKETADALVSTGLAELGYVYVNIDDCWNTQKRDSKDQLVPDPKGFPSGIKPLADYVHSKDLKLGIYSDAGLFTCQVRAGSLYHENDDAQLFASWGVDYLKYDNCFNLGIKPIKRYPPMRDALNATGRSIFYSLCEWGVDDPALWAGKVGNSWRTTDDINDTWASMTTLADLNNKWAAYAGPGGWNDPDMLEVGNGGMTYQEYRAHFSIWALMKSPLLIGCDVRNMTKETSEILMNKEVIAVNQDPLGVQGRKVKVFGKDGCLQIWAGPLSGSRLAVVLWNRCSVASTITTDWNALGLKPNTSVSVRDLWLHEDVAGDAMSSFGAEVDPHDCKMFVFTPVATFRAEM
CsGAL1 (Cucumis sativus), sequence (chain, as listed by the source): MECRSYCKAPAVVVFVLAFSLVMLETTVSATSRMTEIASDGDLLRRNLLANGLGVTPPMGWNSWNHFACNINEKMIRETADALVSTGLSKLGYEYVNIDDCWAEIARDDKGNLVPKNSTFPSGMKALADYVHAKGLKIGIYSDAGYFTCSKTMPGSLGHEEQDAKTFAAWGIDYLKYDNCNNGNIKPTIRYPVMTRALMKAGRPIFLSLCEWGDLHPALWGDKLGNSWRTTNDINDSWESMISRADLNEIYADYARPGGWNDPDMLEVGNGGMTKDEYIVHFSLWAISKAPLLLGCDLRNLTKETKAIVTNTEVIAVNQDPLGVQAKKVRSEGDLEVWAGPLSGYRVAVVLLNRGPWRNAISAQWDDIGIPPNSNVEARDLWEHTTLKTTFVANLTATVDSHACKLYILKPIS
CsGAL2 (Cucumis sativus), sequence (chain, as listed by the source): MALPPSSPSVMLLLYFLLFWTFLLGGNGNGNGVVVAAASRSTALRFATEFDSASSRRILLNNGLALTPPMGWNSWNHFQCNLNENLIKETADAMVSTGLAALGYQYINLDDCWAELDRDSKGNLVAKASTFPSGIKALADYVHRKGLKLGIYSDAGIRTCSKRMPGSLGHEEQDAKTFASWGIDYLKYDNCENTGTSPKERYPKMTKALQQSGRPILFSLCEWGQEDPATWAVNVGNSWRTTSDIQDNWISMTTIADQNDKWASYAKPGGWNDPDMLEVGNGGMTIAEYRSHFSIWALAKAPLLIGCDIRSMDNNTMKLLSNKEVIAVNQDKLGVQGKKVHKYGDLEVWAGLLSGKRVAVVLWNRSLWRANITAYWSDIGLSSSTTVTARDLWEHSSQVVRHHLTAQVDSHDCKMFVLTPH

The Km is the concentration of substrate that gives half-maximal velocity. Turning to CsGAL1 (Cucumis sativus), the Km in data set [1] stood at 12.3 ± 1.92 mM; in data set [2], 4.71 ± 0.85 mM; in data set [3] it was 0.89 ± 0.12 mM.
Regarding CsGAL2 (Cucumis sativus), the Km in data set [1] is 11.85 ± 2.05 mM; in data set [2] it was 5.63 ± 0.67 mM; in data set [3], 1.35 ± 0.23 mM.
Turning to CsGAL3 (Cucumis sativus), the Km in data set [1] stood at 18.92 ± 2.56 mM; in data set [2], 3.24 ± 0.70 mM; in data set [3], 0.99 ± 0.10 mM.
